From paper doi:10.1101/671792 come the findings set out here.

For the test, the target named is polymerization-deficient p62 PB1 domain D69A/D73A (human) (UniProt Q13501). Briefly: ITC. On the technique in general: ITC needs no label: the signal is the heat of the interaction.

As a reminder, the Kd is the equilibrium constant for the complex coming apart. Substance “human NBR1 PB1 domain, residues 1-85 (ITC) (from UniProt Q14596 1-85) (domain or fragment)” showed a Kd of 12.6 nM.
